{
  "source": "paper PMC7846482",
  "about": "(The Journal of Biological Chemistry, 2021)",
  "molecular_target": "T1, SΔTM deglycosylated by PNGase F (trimeric spike protein without transmembrane domain) (SARS-CoV-2 Wuhan-Hu-1, UniProt P0DTC2, stabilised, deglycosylated by PNGase F)",
  "T1 construct": "also called nonglycosylated SΔTM; deglycosylated spike protein",
  "test": "western blotting",
  "conditions": "both partners purified",
  "data": [
    {"binder": "mouse anti-SARS-CoV-2 spike monoclonal antibody clone R31 (antibody, V domains shown) VH: QVQLQQSGAELVRPGTSVKISCKASYTFTNYWLAWVKQRPGHGLEWIGDIYPGGAYTNFNEKFKGKATLTADTSSSTAYMQLSSLTSEDSAVYFCARDGHYGYAMDYWGQGTSVTVSS VL: DIVMTQAAFSNPVTLGTSASISCRSSKSLLHSNGITYLYWYLQKPGQSPQLLIYQMSDLASGVPDRFSSSGSGTDFTLRISRVEAEDVGVYYCAQNLELPRTFGGGIKLEIK", "values": [
      {"measurement": "binding result", "result": "binds"}
    ]}
  ]
}
